From publication PMC9913352

Target: untagged human Nit1 isoform 4 (human)
Assay: SEC; untagged proteins after on-column TEV cleavage, Superdex 200-HR, 50 mM Tris/HCl pH 8.0, 100 mM NaCl, 2 mM MgCl2, 0.3 mL/min; calibrated with marker proteins

stoichiometry N: 4
Substance: untagged human Nit1 isoform 4 (natural protein)
